Laboratory results taken from US20240092890A1 (JUNTENDO EDUCATIONAL FOUNDATION, published 2024).

How the values were obtained:
[1] = biological target: T1, protein having an Fc region and a His-tag added to the N-terminus of SEQ ID NO: 1; assay: BLItz biolayer interferometry, Fc/His-SEQ ID NO: 1 protein on the biosensor
T1 construct: also called mutant CALR protein (antigen of the BLItz measurement); not shown: Fc region and His-tag at the N-terminus
T1 chain: RRMMRTKMRMRRM
Procedure, shortened: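 The Fc/His-tagged protein was loaded at 0.1 mg/mL onto Anti-Penta-HIS or Protein A biosensors. Antibodies were run at 500, 100 and 50 nM by biolayer interferometry, and the dissociation constant was derived from these binding curves.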

[2] = biological target: T2, Ins 5 type mutant CALR protein on UT-7/TPO CALR Ins 5 cells (UniProt P27797 18-417); assay: cell-based or functional assay
T2 sequence (looked up): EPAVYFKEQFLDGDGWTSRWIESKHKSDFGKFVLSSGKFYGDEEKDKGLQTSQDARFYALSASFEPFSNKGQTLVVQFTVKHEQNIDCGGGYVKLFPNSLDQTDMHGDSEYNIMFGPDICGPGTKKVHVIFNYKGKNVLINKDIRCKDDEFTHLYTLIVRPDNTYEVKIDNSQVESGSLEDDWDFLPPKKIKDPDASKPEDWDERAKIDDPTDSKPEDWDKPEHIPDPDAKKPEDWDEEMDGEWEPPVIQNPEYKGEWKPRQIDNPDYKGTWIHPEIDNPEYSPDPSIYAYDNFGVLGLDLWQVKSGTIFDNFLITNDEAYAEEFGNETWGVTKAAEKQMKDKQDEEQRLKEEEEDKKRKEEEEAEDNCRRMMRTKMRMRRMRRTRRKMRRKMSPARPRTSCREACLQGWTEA

B1: Antibody 90 (bispecific antibody)
chain 1: not shown
chain 2: DIQMTQSPSSLSASVGDRVTITCLASEDIYSYLAWYQQKPGKAPKLLIFAANRLQSGVPSRFSGSGSGTDFTLTISSLQPEDFATYYCLQGSKFPYTFGPGTKVDIKRTVAAPSVFIFPPSDEQLKSGTASVVCLLNNFYPREAKVQWKVDNALQSGNSQESVTEQDSKDSTYSLSSTLTLSKADYEKHKVYACEVTHQGLSSPVTKSFNRGEC
In the case of B1, the Kd [1] is reported as < 1 pM and the “EC50 of cytotoxic activity (pM)” value [2] is reported as 269 pM.

B2: Antibody 111 (bispecific antibody)
chain 1: not shown
chain 2: DIQMTQSPSSLSASVGDRVTITCLASEDIYSYLAWYQQKPGKAPKLLIFAANRLQSGVPSRFSGSGSGTDFTLTISSLQPEDFATYYCLQGSKFPYTFGPGTKVDIKRTVAAPSVFIFPPSDEQLKSGTASVVCLLNNFYPREAKVQWKVDNALQSGNSQESVTEQDSKDSTYSLSSTLTLSKADYEKHKVYACEVTHQGLSSPVTKSFNRGEC
chain 3: DKTHTCPPCPAPEAAGGPSVFLFPPKPKDTLMISRTPEVTCVVVDVSHEDPEVKFNWYVDGVEVHNAKTKPREEQYNSTYRVVSVLTVLHQDWLNGKEYKCKVSNKALPAPIEKTISKAKGQPREPQVCTLPPSREEMTKNQVSLSCAVKGFYPSDIAVEWESNGQPENNYKTTPPVLDSDGSFFLVSKLTVDKSRWQQGNVFSCSVMHEALHNHYTQKSLSLSPGK
In the case of B2, the Kd [1] is reported as 12800 pM and the “EC50 of cytotoxic activity (pM)” value [2] is reported as 6110 pM.

B3: Antibody 106 (bispecific antibody)
chain 1: QVQLVQSGAEVKKPGSSVKVSCKASGYTFTRNFIHWIRQAPGQGLEWIGWIFPGDADTEYNQKFSGRATITADKSTSTAYMELSSLRSEDTAVYYCARGNYNYEYFDYWGQGTMVTVSSASTKGPSVFPLAPSSKSTSGGTAALGCLVKDYFPEPVTVSWNSGALTSGVHTFPAVLQSSGLYSLSSVVTVPSSSLGTQTYICNVNHKPSNTKVDKRVEPKSCGGGGSQVQLVQSGGGVVQPGRSLRLSCKASGYTFTRYTMHWVRQAPGKGLEWIGYINPSRGYTNYNQKVKDRFTISRDNSKNTAFLQMDSLRPEDTGVYFCARYYDDHYSLDYWGQGTPVTVSSGGGGSGGGGSGGGGSDIQMTQSPSSLSASVGDRVTITCSASSSVSYMNWYQQTPGKAPKRWIYDTSKLASGVPSRFSGSGSGTDYTFTISSLQPEDIATYYCQQWSSNPFTFGQGTKLQITRHHHHHH
chain 2: DIQMTQSPSSLSASVGDRVTITCLASEDIYSYLAWYQQKPGKAPKLLIFAANRLQDGVPSRFSGSGSGTDFTLTISSLQPEDFATYYCLQGSKFPYTFGPGTKVDIKRTVAAPSVFIFPPSDEQLKSGTASVVCLLNNFYPREAKVQWKVDNALQSGNSQESVTEQDSKDSTYSLSSTLTLSKADYEKHKVYACEVTHQGLSSPVTKSFNRGEC
In the case of B3, the Kd [1] is reported as 4990 pM and the “EC50 of cytotoxic activity (pM)” value [2] is reported as 2560 pM.

B4: Antibody 92 (bispecific antibody)
chain 1: not shown
chain 2: DIQMTQSPSSLSASVGDRVTITCLASEDIYSYLAWYQQKPGKAPKLLIFAANRLQSGVPSRFSGSGSGTDFTLTISSLQPEDFATYYCLQGSKFPYTFGPGTKVDIKRTVAAPSVFIFPPSDEQLKSGTASVVCLLNNFYPREAKVQWKVDNALQSGNSQESVTEQDSKDSTYSLSSTLTLSKADYEKHKVYACEVTHQGLSSPVTKSFNRGEC
With B4 the Kd [1] was < 1 pM and the “EC50 of cytotoxic activity (pM)” value [2] was 47 pM.

B5: Antibody 91 (bispecific antibody)
chain 1: not shown
chain 2: DIQMTQSPSSLSASVGDRVTITCLASEDIYSYLAWYQQKPGKAPKLLIFAANRLQSGVPSRFSGSGSGTDFTLTISSLQPEDFATYYCLQGSKFPYTFGPGTKVDIKRTVAAPSVFIFPPSDEQLKSGTASVVCLLNNFYPREAKVQWKVDNALQSGNSQESVTEQDSKDSTYSLSSTLTLSKADYEKHKVYACEVTHQGLSSPVTKSFNRGEC
With B5 the Kd [1] was < 1 pM and the “EC50 of cytotoxic activity (pM)” value [2] was 230 pM.

B6: Antibody 94 (bispecific antibody)
chain 1: not shown
chain 2: DIQMTQSPSSLSASVGDRVTITCLASEDIYSYLAWYQQKPGKAPKLLIFAANRLQDGVPSRFSGSGSGTDFTLTISSLQPEDFATYYCLQGSKFPYTFGPGTKVDIKRTVAAPSVFIFPPSDEQLKSGTASVVCLLNNFYPREAKVQWKVDNALQSGNSQESVTEQDSKDSTYSLSSTLTLSKADYEKHKVYACEVTHQGLSSPVTKSFNRGEC
B6 was tested, and the Kd [1] was < 1 pM and the “EC50 of cytotoxic activity (pM)” value [2] was 32 pM.

B7: Antibody 107 (bispecific antibody)
chain 1: not shown
chain 2: DIQMTQSPSSLSASVGDRVTITCLASEDIYSYLAWYQQKPGKAPKLLIFAANRLQDGVPSRFSGSGSGTDFTLTISSLQPEDFATYYCLQGSKFPYTFGPGTKVDIKRTVAAPSVFIFPPSDEQLKSGTASVVCLLNNFYPREAKVQWKVDNALQSGNSQESVTEQDSKDSTYSLSSTLTLSKADYEKHKVYACEVTHQGLSSPVTKSFNRGEC
chain 3: DKTHTCPPCPAPEAAGGPSVFLFPPKPKDTLMISRTPEVTCVVVDVSHEDPEVKFNWYVDGVEVHNAKTKPREEQYNSTYRVVSVLTVLHQDWLNGKEYKCKVSNKALPAPIEKTISKAKGQPREPQVCTLPPSREEMTKNQVSLSCAVKGFYPSDIAVEWESNGQPENNYKTTPPVLDSDGSFFLVSKLTVDKSRWQQGNVFSCSVMHEALHNHYTQKSLSLSPGK
In the case of B7, the Kd [1] is reported as 12100 pM and the “EC50 of cytotoxic activity (pM)” value [2] is reported as 3870 pM.

B8: Antibody 101 (bispecific antibody, human IgG1, kappa, L234A L235A)
chain 1: not shown
chain 2: DIQMTQSPSFVSASVGDRVTITCLASEDIYSYLAWYQQKPGKAPKLLIFAANRLQDGVPSRFSGGGSGTGFTLTISSLQPEDFATYFCLQGSKFPYTFGQGTKLEINRTVAAPSVFIFPPSDEQLKSGTASVVCLLNNFYPREAKVQWKVDNALQSGNSQESVTEQDSKDSTYSLSSTLTLSKADYEKHKVYACEVTHQGLSSPVTKSFNRGECGGGGSGGGGSQVQLVQSGGGVVQPGRSLRLSCKASGYTFTRYTMHWVRQAPGKGLEWIGYINPSRGYTNYNQKVKDRFTISRDNSKNTAFLQMDSLRPEDTGVYFCARYYDDHYSLDYWGQGTPVTVSSGGGGSGGGGSGGGGSDIQMTQSPSSLSASVGDRVTITCSASSSVSYMNWYQQTPGKAPKRWIYDTSKLASGVPSRFSGSGSGTDYTFTISSLQPEDIATYYCQQWSSNPFTFGQGTKLQITR
For B8, the Kd [1] was < 1 pM and the “EC50 of cytotoxic activity (pM)” value [2] was 1660 pM.

B9: Antibody 103 (bispecific antibody, human IgG1, kappa, L234A L235A)
chain 1: not shown
chain 2: DIQMTQSPSSLSASVGDRVTITCLASEDIYSYLAWYQQKPGKAPKLLIFAANRLQSGVPSRFSGSGSGTDFTLTISSLQPEDFATYYCLQGSKFPYTFGPGTKVDIKRTVAAPSVFIFPPSDEQLKSGTASVVCLLNNFYPREAKVQWKVDNALQSGNSQESVTEQDSKDSTYSLSSTLTLSKADYEKHKVYACEVTHQGLSSPVTKSFNRGECGGGGSGGGGSQVQLVQSGGGVVQPGRSLRLSCKASGYTFTRYTMHWVRQAPGKGLEWIGYINPSRGYTNYNQKVKDRFTISRDNSKNTAFLQMDSLRPEDTGVYFCARYYDDHYSLDYWGQGTPVTVSSGGGGSGGGGSGGGGSDIQMTQSPSSLSASVGDRVTITCSASSSVSYMNWYQQTPGKAPKRWIYDTSKLASGVPSRFSGSGSGTDYTFTISSLQPEDIATYYCQQWSSNPFTFGQGTKLQITR
With B9 the Kd [1] was < 1 pM and the “EC50 of cytotoxic activity (pM)” value [2] was 399 pM.

B10: Antibody 100 (bispecific antibody, human IgG1, kappa, L234A L235A)
chain 1: not shown
chain 2: DIQMTQSPSFVSASVGDRVTITCLASEDIYSYLAWYQQKPGKAPKLLIFAANRLQDGVPSRFSGGGSGTGFTLTISSLQPEDFATYFCLQGSKFPYTFGQGTKLEINRTVAAPSVFIFPPSDEQLKSGTASVVCLLNNFYPREAKVQWKVDNALQSGNSQESVTEQDSKDSTYSLSSTLTLSKADYEKHKVYACEVTHQGLSSPVTKSFNRGECGGGGSGGGGSQVQLVQSGGGVVQPGRSLRLSCKASGYTFTRYTMHWVRQAPGKGLEWIGYINPSRGYTNYNQKVKDRFTISRDNSKNTAFLQMDSLRPEDTGVYFCARYYDDHYSLDYWGQGTPVTVSSGGGGSGGGGSGGGGSDIQMTQSPSSLSASVGDRVTITCSASSSVSYMNWYQQTPGKAPKRWIYDTSKLASGVPSRFSGSGSGTDYTFTISSLQPEDIATYYCQQWSSNPFTFGQGTKLQITR
B10 was tested, and the Kd [1] was < 1 pM and the “EC50 of cytotoxic activity (pM)” value [2] was 1080 pM.

B11: Antibody 102 (bispecific antibody, human IgG1, kappa, L234A L235A)
chain 1: not shown
chain 2: DIQMTQSPSFVSASVGDRVTITCLASEDIYSYLAWYQQKPGKAPKLLIFAANRLQSGVPSRFSGGGSGTGFTLTISSLQPEDFATYFCLQGSKFPYTFGQGTKLEINRTVAAPSVFIFPPSDEQLKSGTASVVCLLNNFYPREAKVQWKVDNALQSGNSQESVTEQDSKDSTYSLSSTLTLSKADYEKHKVYACEVTHQGLSSPVTKSFNRGECGGGGSGGGGSQVQLVQSGGGVVQPGRSLRLSCKASGYTFTRYTMHWVRQAPGKGLEWIGYINPSRGYTNYNQKVKDRFTISRDNSKNTAFLQMDSLRPEDTGVYFCARYYDDHYSLDYWGQGTPVTVSSGGGGSGGGGSGGGGSDIQMTQSPSSLSASVGDRVTITCSASSSVSYMNWYQQTPGKAPKRWIYDTSKLASGVPSRFSGSGSGTDYTFTISSLQPEDIATYYCQQWSSNPFTFGQGTKLQITR
With B11 the Kd [1] was < 1 pM and the “EC50 of cytotoxic activity (pM)” value [2] was 850 pM.

B12: Antibody 104 (bispecific antibody, human IgG1, kappa, L234A L235A)
chain 1: not shown
chain 2: DIQMTQSPSSLSASVGDRVTITCLASEDIYSYLAWYQQKPGKAPKLLIFAANRLQSGVPSRFSGSGSGTDFTLTISSLQPEDFATYYCLQGSKFPYTFGPGTKVDIKRTVAAPSVFIFPPSDEQLKSGTASVVCLLNNFYPREAKVQWKVDNALQSGNSQESVTEQDSKDSTYSLSSTLTLSKADYEKHKVYACEVTHQGLSSPVTKSFNRGECGGGGSGGGGSQVQLVQSGGGVVQPGRSLRLSCKASGYTFTRYTMHWVRQAPGKGLEWIGYINPSRGYTNYNQKVKDRFTISRDNSKNTAFLQMDSLRPEDTGVYFCARYYDDHYSLDYWGQGTPVTVSSGGGGSGGGGSGGGGSDIQMTQSPSSLSASVGDRVTITCSASSSVSYMNWYQQTPGKAPKRWIYDTSKLASGVPSRFSGSGSGTDYTFTISSLQPEDIATYYCQQWSSNPFTFGQGTKLQITR
With B12 the Kd [1] was < 1 pM and the “EC50 of cytotoxic activity (pM)” value [2] was 621 pM.
